One may read the Kd as the concentration at which binding is half-saturated. Higher therefore signals a looser complex.

Positions count from the first letter of the chain named. Numbers in names are those of the source.

This is an account of results in publication PMC10786891, “Massively parallel profiling of RNA-targeting CRISPR-Cas13d”.

First the molecules themselves.
T1: EsCas13d, nuclease-dead (Eubacterium siraeum, UniProt B0MS50, R295A;H300A;R849A;H854A)
T1 sequence: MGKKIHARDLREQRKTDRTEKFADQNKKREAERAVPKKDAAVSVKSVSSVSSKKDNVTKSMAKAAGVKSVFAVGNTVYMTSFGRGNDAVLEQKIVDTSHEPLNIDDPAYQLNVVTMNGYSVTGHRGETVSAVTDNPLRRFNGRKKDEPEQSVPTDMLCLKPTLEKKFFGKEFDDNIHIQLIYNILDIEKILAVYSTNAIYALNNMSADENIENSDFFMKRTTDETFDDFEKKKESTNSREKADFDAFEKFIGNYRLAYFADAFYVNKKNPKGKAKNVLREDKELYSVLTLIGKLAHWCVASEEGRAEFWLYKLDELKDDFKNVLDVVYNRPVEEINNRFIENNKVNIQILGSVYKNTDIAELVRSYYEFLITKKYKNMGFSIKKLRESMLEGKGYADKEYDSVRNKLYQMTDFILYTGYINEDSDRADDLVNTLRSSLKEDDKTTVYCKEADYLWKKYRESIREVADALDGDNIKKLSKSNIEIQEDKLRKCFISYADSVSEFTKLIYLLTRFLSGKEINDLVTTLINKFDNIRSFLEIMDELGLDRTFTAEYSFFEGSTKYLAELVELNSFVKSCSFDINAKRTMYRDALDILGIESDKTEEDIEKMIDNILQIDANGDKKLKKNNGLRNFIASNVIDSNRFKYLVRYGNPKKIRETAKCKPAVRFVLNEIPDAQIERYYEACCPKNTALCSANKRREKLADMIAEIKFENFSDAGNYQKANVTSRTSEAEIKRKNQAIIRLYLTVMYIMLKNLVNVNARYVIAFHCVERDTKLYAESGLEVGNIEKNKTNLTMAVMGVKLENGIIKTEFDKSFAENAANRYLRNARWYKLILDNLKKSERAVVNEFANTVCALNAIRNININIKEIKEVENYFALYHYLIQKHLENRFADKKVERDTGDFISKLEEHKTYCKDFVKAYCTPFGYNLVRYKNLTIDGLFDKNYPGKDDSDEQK

B1: target 1 MT 5'PFS GGA 3'PFS UUA (mixed)
RNA 1: CACCCGUGCAAAAAUGCAGGGGUCUAAAACUGAGCGGAUAACCUCUCUAUGG
RNA 2: GGGAAUGGAUCCACAUCUACGAAUUCGGACCAUAGAGAGGUUAUCCGCUCAUUAAGAUCGGAAGAGCACACGU
B2: target 1 MT 5'PFS UCC 3'PFS CAG (mixed)
RNA 1: B1 RNA 1
RNA 2: B1 RNA 2 with G27U, G28C, A29C, U52C, U53A, A54G
B3: target 1 MT 5'PFS ACU 3'PFS CCG (mixed)
RNA 1: B1 RNA 1
RNA 2: B1 RNA 2 with G27A, G28C, A29U, U52C, U53C, A54G
B4: target 1 MT 5'PFS ACU 3'PFS UUU (mixed)
RNA 1: B1 RNA 1
RNA 2: B1 RNA 2 with G27A, G28C, A29U, A54U
B5: target 1 MT 5'PFS CUU 3'PFS CGC (mixed)
RNA 1: B1 RNA 1
RNA 2: B1 RNA 2 with G27C, G28U, A29U, U52C, U53G, A54C
B6: target 1 MT 5'PFS GGA 3'PFS UUU (mixed)
RNA 1: B1 RNA 1
RNA 2: B1 RNA 2 with A54U
B7: target 1 MT 5'PFS GAC 3'PFS AAU (mixed)
RNA 1: B1 RNA 1
RNA 2: B1 RNA 2 with G28A, A29C, U52A, U53A, A54U
B8: target 1 MT 5'PFS CUA 3'PFS CUC (mixed)
RNA 1: B1 RNA 1
RNA 2: B1 RNA 2 with G27C, G28U, U52C, A54C
B9: target 1 insC 3' of 13,insG 3' of 3 (mixed)
RNA 1: B1 RNA 1
RNA 2: GGGAAUGGAUCCACAUCUACGAAUUCGUACCAUAGAGAGCGUUAUCCGCUGCACCGAGAUCGGAAGAGCACACGU
B10: target 1 MT 5'PFS CAC 3'PFS AAG (mixed)
RNA 1: B1 RNA 1
RNA 2: B1 RNA 2 with G27C, G28A, A29C, U52A, U53A, A54G
B11: target 1 MT 5'PFS GGG 3'PFS AGC (mixed)
RNA 1: B1 RNA 1
RNA 2: B1 RNA 2 with A29G, U52A, U53G, A54C
B12: target 1 MT 5'PFS GGG 3'PFS AGG (mixed)
RNA 1: B1 RNA 1
RNA 2: B1 RNA 2 with A29G, U52A, U53G, A54G
B13: target 1 MT 5'PFS AGA 3'PFS AGA (mixed)
RNA 1: B1 RNA 1
RNA 2: B1 RNA 2 with G27A, U52A, U53G
B14: target 1 MT 5'PFS UCG 3'PFS UAU (mixed)
RNA 1: B1 RNA 1
RNA 2: B1 RNA 2 with G27U, G28C, A29G, U53A, A54U
B15: target 1 MT 5'PFS GGG 3'PFS GGC (mixed)
RNA 1: B1 RNA 1
RNA 2: B1 RNA 2 with A29G, U52G, U53G, A54C
B16: target 1 G12A,A20C (mixed)
RNA 1: B1 RNA 1
RNA 2: B1 RNA 2 with G28U, A32C, G40A, U52C, U53C, A54G
B17: target 1 MT 5'PFS UCC 3'PFS CAA (mixed)
RNA 1: B1 RNA 1
RNA 2: B1 RNA 2 with G27U, G28C, A29C, U52C, U53A
B18: target 1 U3C,C6U (mixed)
RNA 1: B1 RNA 1
RNA 2: B1 RNA 2 with G28U, C46U, U49C, U52C, U53C, A54G
B19: target 1 MT 5'PFS UGU 3'PFS ACG (mixed)
RNA 1: B1 RNA 1
RNA 2: B1 RNA 2 with G27U, A29U, U52A, U53C, A54G
B20: target 1 MT 5'PFS UCG 3'PFS UAA (mixed)
RNA 1: B1 RNA 1
RNA 2: B1 RNA 2 with G27U, G28C, A29G, U53A
B21: target 1 MT 5'PFS UGU 3'PFS ACU (mixed)
RNA 1: B1 RNA 1
RNA 2: B1 RNA 2 with G27U, A29U, U52A, U53C, A54U
B22: target 1 MT 5'PFS UCG 3'PFS CUU (mixed)
RNA 1: B1 RNA 1
RNA 2: B1 RNA 2 with G27U, G28C, A29G, U52C, A54U
B23: target 1 MT 5'PFS GGG 3'PFS AGA (mixed)
RNA 1: B1 RNA 1
RNA 2: B1 RNA 2 with A29G, U52A, U53G
B24: target 1 MT 5'PFS AUU 3'PFS AAG (mixed)
RNA 1: B1 RNA 1
RNA 2: B1 RNA 2 with G27A, G28U, A29U, U52A, U53A, A54G
B25: target 1 MT 5'PFS UGU 3'PFS ACA (mixed)
RNA 1: B1 RNA 1
RNA 2: B1 RNA 2 with G27U, A29U, U52A, U53C
B26: target 1 MT 5'PFS GGG 3'PFS AGU (mixed)
RNA 1: B1 RNA 1
RNA 2: B1 RNA 2 with A29G, U52A, U53G, A54U
B27: target 1 MT 5'PFS UCC 3'PFS CAU (mixed)
RNA 1: B1 RNA 1
RNA 2: B1 RNA 2 with G27U, G28C, A29C, U52C, U53A, A54U
B28: target 1 MT 5'PFS GGG 3'PFS GGG (mixed)
RNA 1: B1 RNA 1
RNA 2: B1 RNA 2 with A29G, U52G, U53G, A54G
B29: target 1 MT 5'PFS GUA 3'PFS AAG (mixed)
RNA 1: B1 RNA 1
RNA 2: B1 RNA 2 with G28U, U52A, U53A, A54G
B30: target 1 MT 5'PFS UAG 3'PFS UGA (mixed)
RNA 1: B1 RNA 1
RNA 2: B1 RNA 2 with G27U, G28A, A29G, U53G
B31: target 1 MT 5'PFS CAC 3'PFS AAC (mixed)
RNA 1: B1 RNA 1
RNA 2: B1 RNA 2 with G27C, G28A, A29C, U52A, U53A, A54C
B32: target 1 MT 5'PFS GAC 3'PFS AAG (mixed)
RNA 1: B1 RNA 1
RNA 2: B1 RNA 2 with G28A, A29C, U52A, U53A, A54G
B33: target 1 MT 5'PFS AGA 3'PFS AGC (mixed)
RNA 1: B1 RNA 1
RNA 2: B1 RNA 2 with G27A, U52A, U53G, A54C
B34: target 1 MT 5'PFS UCG 3'PFS UAC (mixed)
RNA 1: B1 RNA 1
RNA 2: B1 RNA 2 with G27U, G28C, A29G, U53A, A54C
B35: target 1 MT 5'PFS ACA 3'PFS UAG (mixed)
RNA 1: B1 RNA 1
RNA 2: B1 RNA 2 with G27A, G28C, U53A, A54G
B36: target 1 MT 5'PFS AGA 3'PFS AGU (mixed)
RNA 1: B1 RNA 1
RNA 2: B1 RNA 2 with G27A, U52A, U53G, A54U
B37: target 1 MT 5'PFS GAA 3'PFS AGU (mixed)
RNA 1: B1 RNA 1
RNA 2: B1 RNA 2 with G28A, U52A, U53G, A54U
B38: target 1 MT 5'PFS GGG 3'PFS GGU (mixed)
RNA 1: B1 RNA 1
RNA 2: B1 RNA 2 with A29G, U52G, U53G, A54U

The target of this series is T1, EsCas13d, nuclease-dead. The series is described as follows: crRNA (strand 1, pre-loaded); Mg2+; 40 mM Tris-HCl pH 7.5, 150 mM NaCl, 6 mM MgCl2, 1 mM DTT, 0.1% Tween-20, 0.2 mg/ml BSA; 25 C; 10 min per concentration, then washed. To be noted: tags: His6-TwinStrep-SUMO cleaved; N-terminal SNAP kept (SNAP-Surface 488); label: 3' end held by stalled T7 RNA polymerase.
Consider B1, for which binding was put at a Kd of 14.2 ± 3.1 nM.
For B2 the value was approximately 60 nM; for B3, approximately 115 nM.
Next, B4: 39.5 ± 15.5 nM; B5: 18 ± 6 nM; B6: 13.4 ± 4.15 nM.
For B7 the value was approximately 50 nM; for B8, 7.15 ± 3.05 nM.
For the molecule B9, the Kd is 5.58 ± 0.3 nM.
For B10 the value was 42 ± 17 nM; for B11, 20.5 ± 4.5 nM.
For B12 the value was 50.5 ± 8.5 nM; for B13, 70.5 ± 31.5 nM.
As for B14, the dissociation constant (Kd) came to 27 ± 5.5 nM.
In the case of B15, the Kd was 26.5 ± 5 nM.
Next, B16: 42 ± 9 nM.
For B17 the value was approximately 18 nM; for B18, 14.4 ± 1.9 nM.
For B19 the value was approximately 80 nM.
As for B20, binding was put at a Kd of 86.5 ± 38.5 nM.
For B21 the value was 34.5 ± 13.5 nM.
For B22 the value was 24.5 ± 6.5 nM; for B23, 23.9 ± 3.1 nM; for B24, 95 ± 40 nM.
Take B25: the Kd was 71 ± 18 nM.
Next, B26: 30.4 ± 4.65 nM.
For B27 the value was 13 ± 5.5 nM.
Next, B28: 65.5 ± 14 nM; B29: 19.1 ± 1.2 nM; B30: 34.5 ± 8 nM.
In the case of B31, the equilibrium dissociation constant (Kd) was approximately 34.5 nM.
For B32 the value was 50.5 ± 22.5 nM; for B33, approximately 42.5 nM; for B34, 22.5 ± 9 nM.
Next, B35: 11.2 ± 4.95 nM; B36: 44.5 ± 18 nM; B37: 43 ± 11.5 nM.
For B38 the value was 61 ± 14 nM.
